Positions count from the first letter of the chain named.
T1: Recombinant human OX40-His protein (human, UniProt P43489 29-214, limits assumed)
T1 construct: Recombinant antigen protein; also called recombinant human OX-40 protein; human OX-40 protein; not shown: His tag
T1 sequence (looked up): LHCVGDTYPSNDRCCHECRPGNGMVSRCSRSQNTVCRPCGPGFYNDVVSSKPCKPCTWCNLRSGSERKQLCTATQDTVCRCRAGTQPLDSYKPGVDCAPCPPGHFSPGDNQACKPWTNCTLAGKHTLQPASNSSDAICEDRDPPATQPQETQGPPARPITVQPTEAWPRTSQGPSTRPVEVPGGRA

T2: OX40 on a functional cell line overexpressing OX40 (UniProt P43489 29-277, limits assumed)
T2 sequence (looked up): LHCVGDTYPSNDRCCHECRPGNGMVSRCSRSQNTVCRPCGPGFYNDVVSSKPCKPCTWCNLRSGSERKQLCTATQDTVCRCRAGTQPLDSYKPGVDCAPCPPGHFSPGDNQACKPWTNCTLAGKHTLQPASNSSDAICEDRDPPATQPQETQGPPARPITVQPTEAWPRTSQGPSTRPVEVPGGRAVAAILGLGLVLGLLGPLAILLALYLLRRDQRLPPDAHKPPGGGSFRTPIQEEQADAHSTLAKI

T3: Recombinant monkey OX-40 protein (monkey)
T3 chain: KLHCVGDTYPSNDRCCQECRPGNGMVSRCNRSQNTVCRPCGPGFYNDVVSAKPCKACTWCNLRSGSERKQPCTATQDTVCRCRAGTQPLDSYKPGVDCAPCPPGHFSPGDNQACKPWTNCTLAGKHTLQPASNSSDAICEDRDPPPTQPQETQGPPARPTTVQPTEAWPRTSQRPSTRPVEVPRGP

B1: AH02906, prokaryotically expressed antibody product (back-mutation screening) (Fab, V domains shown)
VH: QVQLVQSGAEVKKPGASVKVSCKASGYTFTDYSMHWVKQAPGQGLEWMGWISTETGEPTYADDFKGRFTITLDTSASTAYMELSSLRSEDTAVYYCARVRPWYLAVWGQGTLVTVSS
VL: DIQMTQSPSSLSASVGDRVTITCRASQDISNYLNWYQQKPGKAPKLLIYYTSRLYSGVPSRFSGSGSGTDYTLTISSLQPEDIATYFCQQANTLPLTFGGGTKLEIK
B2: AH02913 humanized anti-human OX40 monoclonal antibody (recombinant human IgG1/kappa) (antibody, V domains shown)
VH: B1 VH with A9P, F68V, Y95F
VL: B1 VL with P44V, L73F
B3: AH02913, prokaryotically expressed antibody product (back-mutation screening) (Fab, V domains shown)
VH: B1 VH with A9P, F68V, Y95F
VL: B1 VL with P44V, L73F
B4: AH02915 humanized anti-human OX40 monoclonal antibody (recombinant human IgG1/kappa) (antibody, V domains shown)
VH: B1 VH with F68V, M81L, L83I
VL: B1 VL with Y71F
B5: AH02915, prokaryotically expressed antibody product (back-mutation screening) (Fab, V domains shown)
VH: B1 VH with F68V, M81L, L83I
VL: B1 VL with Y71F
B6: AH02916 humanized anti-human OX40 monoclonal antibody (recombinant human IgG1/kappa) (antibody, V domains shown)
VH: B1 VH with F68V
VL: B1 VL with P44V, L73F
B7: AH02916, prokaryotically expressed antibody product (back-mutation screening) (Fab, V domains shown)
VH: B1 VH with F68V
VL: B1 VL with P44V, L73F
B8: AH02917 humanized anti-human OX40 monoclonal antibody (recombinant human IgG1/kappa) (antibody, V domains shown)
VH: B1 VH with Y95F
VL: B1 VL with P44V, Y71F, F87Y
B9: AH02917, prokaryotically expressed antibody product (back-mutation screening) (Fab, V domains shown)
VH: B1 VH with Y95F
VL: B1 VL with P44V, Y71F, F87Y
B10: AH02919 humanized anti-human OX40 monoclonal antibody (recombinant human IgG1/kappa) (antibody, V domains shown)
VH: B1 VH with F68V, L72R, M81L, L83I, Y95F
VL: B1 VL with P44V, F87Y
B11: AH02919, prokaryotically expressed antibody product (back-mutation screening) (Fab, V domains shown)
VH: B1 VH with F68V, L72R, M81L, L83I, Y95F
VL: B1 VL with P44V, F87Y
B12: AH02921 humanized anti-human OX40 monoclonal antibody (recombinant human IgG1/kappa) (antibody, V domains shown)
VH: B1 VH with A9P, K38R, M81L, L83I, Y95F, A105T
VL: B1 VL
B13: AH02921, prokaryotically expressed antibody product (back-mutation screening) (Fab, V domains shown)
VH: B1 VH with A9P, K38R, M81L, L83I, Y95F, A105T
VL: B1 VL
B14: AH02922 humanized anti-human OX40 monoclonal antibody (recombinant human IgG1/kappa) (antibody, V domains shown)
VH: B1 VH with V20I, K38R, G44R, F68V, L72R, A105V
VL: B1 VL with F87Y
B15: AH02922, prokaryotically expressed antibody product (back-mutation screening) (Fab, V domains shown)
VH: B1 VH with V20I, K38R, G44R, F68V, L72R, A105V
VL: B1 VL with F87Y
B16: AH02923, prokaryotically expressed antibody product (back-mutation screening) (Fab, V domains shown)
VH: B1 VH with K38R, I70F, M81L
VL: B1 VL with P44V, L73F, F87Y
B17: AH02925 humanized anti-human OX40 monoclonal antibody (recombinant human IgG1/kappa) (antibody, V domains shown)
VH: B1 VH with F68V, L72R, M81L, L83I, Y95F
VL: B1 VL with P44V, Y71F, F87Y
B18: AH02925, prokaryotically expressed antibody product (back-mutation screening) (Fab, V domains shown)
VH: B1 VH with F68V, L72R, M81L, L83I, Y95F
VL: B1 VL with P44V, Y71F, F87Y
B19: Chimeric antibody (anti-human OX40, recombinant, human IgG1/kappa constant regions) (antibody, V domains shown)
VH: QIQLVQSGPELKKPGETVKISCKASGYTFTDYSMHWVKQAPGKGLKWMGWISTETGEPTYADDFKGRFAFSLETSASTAYLQIKNLKNEDTASYFCARVRPWYLAVWGAGTTVTVSS
VL: DIQMTQTTSSLSASLGDRVTISCRASQDISNYLNWYQQKPDGTVKLLIYYTSRLYSGVPSRFSGSGSGADYSLTVSNLEQEDIATYFCQQANTLPLTFGAGTKLELK
B20: AH02906 humanized anti-human OX40 monoclonal antibody (recombinant human IgG1/kappa) (antibody, V domains shown)
VH: B1 VH
VL: B1 VL

Assays:
[1] = target: T1, Recombinant human OX40-His protein; assay: kinetic ranking (RU, 1:1 binding model), prokaryotically expressed antibody product as ligand, OX40-His as analyte
[2] = target: T2, OX40 on a functional cell line …; assay: cell-based or functional assay
[3] = target: T1, Recombinant human OX40-His protein; assay: ELISA, plate coated with recombinant human OX-40 protein, antibody titrated
Method: Recombinant human OX-40 protein and recombinant monkey OX-40 protein were respectively used to detect the cross-recognition ability of humanized monoclonal antibodies for human/monkey OX-40 protein.
The ELISA plate (Nunc) was coated with 100 μl/well of […] recombinant OX40-His protein in PBS at 4° C. overnight. The plate was washed with PBS-T (0.05% Tween) and blocked with 200 μl/well of PBST containing 1% BSA at 37° C. for 0.5 hr. Then the blocking buffer was discarded, 100 μl of 1000 ng/ml purified antibody was added to the first well, 3-fold serial dilutions were made, and a total of 11 test concentration gradients were given. Then the system was incubated for 1 hr at room temperature. The plate was washed three times with PBST and incubated with 100 μl/well of horseradish peroxidase-conjugated goat anti-human Fab fragment-IgG (Fab-specific) (GenScript) at 37° C. for 0.5 hr. The plate was washed 5 times with PBST, and then a TMB developing solution (GenScript) was added and incubated at room temperature for 15 min in the dark. The reaction was terminated by adding 50 μl of 1 M HCl stop solution (Sigma). The plate was read at 450 nm on a microplate reader.

[4] = target: T3, Recombinant monkey OX-40 protein; assay: ELISA, plate coated with recombinant monkey OX-40 protein, antibody titrated
[5] = target: T1, Recombinant human OX40-His protein; assay: SPR (Biacore 8K), OX40-HIS coupled to chip, antibody as analyte, 1:1 binding model
Method: The chip surface was equilibrated with HBS-EP buffer at a flow rate of 10 μl/min for 5 min, and then a 1:1 mixture of “NHS+EDC” was injected at a flow rate of 10 μl/min for 100 sec to activate the chip. The antigen protein (OX40-HIS) diluted in 10 mM sodium acetate buffer was injected for about 180 sec at a flow rate of 10 μl/min for coupling, and finally ethanolamine was injected for 200 sec at a flow rate of 10 μl/min to block the surface.
Three pre-cycles were performed with the HBS-EP buffer as a sample to balance the chip to stabilize the baseline. A low concentration of antibody was injected at a flow rate of 30 μl/min for 200 sec, to allow the antigen to bind to the antibody, and then the buffer was injected at a flow rate of 30 μl/min for 400 sec for dissociation. 10 mM Gly-HCl pH2.0 was injected three times each for 30 sec at a flow rate of 30 μl/min for regeneration, to complete one cycle.
The antibody concentration was changed to carry out the cycle for measurement at a next gradient concentration until all gradient concentrations (2.5 nM, 5 nM, 10 nM, 20 nM, 40 nM, and […]) and the replicate (such as 20 nM) were tested. The experimental data was double subtracted (minus the background values of the control channel and zero concentration), and fitted to the “1:1 binding” model in the Biacore 8K evaluation software. Biacore 8K was used to determine the affinity of the antibody to the OX40-HIS recombinant protein.

| Binder | Kd [1] [nM] | koff [1] [s⁻¹] | kon [1] [M⁻¹ s⁻¹] | IL-8 secretion by OX40 overexpressing functional cell line, EC50 [2] [nM] | IL-8 secretion by OX40 overexpressing functional cell line, best-fit value Bottom [2] | IL-8 secretion by OX40 overexpressing functional cell line, best-fit value LogEC50 [2] | IL-8 secretion by OX40 overexpressing functional cell line, best-fit value Top [2] | EC50 [3] [µg/mL] | EC50 [4] [µg/mL] | Kd [5] [nM] | koff [5] [s⁻¹] | kon [5] [M⁻¹ s⁻¹] |
| --- | --- | --- | --- | --- | --- | --- | --- | --- | --- | --- | --- | --- |
| B1 | 15.6 | 0.00511 | 328000 |  |  |  |  |  |  |  |  |  |
| B2 |  |  |  | 1.62 | 3950 | 0.209 | 24200 | 0.0161 | 0.0353 | 1.76 | 0.00067 | 381000 |
| B3 | 12.5 | 0.00425 | 339000 |  |  |  |  |  |  |  |  |  |
| B4 |  |  |  |  |  |  |  |  |  | 3 | 0.00142 | 472000 |
| B5 | 14.3 | 0.00307 | 215000 |  |  |  |  |  |  |  |  |  |
| B6 |  |  |  | 3 | 3590 | 0.476 | 24600 | 0.0131 | 0.0323 | 2.46 | 0.000659 | 268000 |
| B7 | 15.7 | 0.00384 | 245000 |  |  |  |  |  |  |  |  |  |
| B8 |  |  |  |  |  |  |  |  |  | 2.6 | 0.00106 | 407000 |
| B9 | 13.7 | 0.00396 | 288000 |  |  |  |  |  |  |  |  |  |
| B10 |  |  |  | 1.03 | 3060 | 0.0123 | 19000 | 0.0143 | 0.0391 | 2.09 | 0.000776 | 372000 |
| B11 | 15.1 | 0.00505 | 335000 |  |  |  |  |  |  |  |  |  |
| B12 |  |  |  | 2.14 | 4420 | 0.329 | 19500 | 0.0161 | 0.0376 | 1.34 | 0.000439 | 327000 |
| B13 | 3.35 | 0.0013 | 388000 |  |  |  |  |  |  |  |  |  |
| B14 |  |  |  |  |  |  |  |  |  | 1.36 | 0.00029 | 213000 |
| B15 | 2.37 | 0.000534 | 225000 |  |  |  |  |  |  |  |  |  |
| B16 | 10.8 | 0.00344 | 317000 |  |  |  |  |  |  |  |  |  |
| B17 |  |  |  |  |  |  |  |  |  | 2.22 | 0.00115 | 520000 |
| B18 | 14.9 | 0.00439 | 295000 |  |  |  |  |  |  |  |  |  |
| B19 |  |  |  |  |  |  |  | 0.0138 | 0.0618 | 2.4 | 0.000814 | 339000 |
| B20 |  |  |  |  |  |  |  |  |  | 2.83 | 0.00116 | 408000 |

Source: patent US20220119540A1 (NANJING GENSCRIPT BIOTECH, published 2022)
